Assay results as given in patent US20250320281A1.

Columns and labels:
[1] = molecular target: HIV-1 92UG024 Env (pseudovirus) (HIV-1); assay: cell-based or functional assay
[2] = molecular target: HIV-1 92RW020 Env (pseudovirus) (HIV-1); assay: cell-based or functional assay
[3] = molecular target: HIV-1 MGRM-C-027 Env (pseudovirus) (HIV-1); assay: cell-based or functional assay
[4] = molecular target: HIV-1 CMU02 Env (pseudovirus) (HIV-1); assay: cell-based or functional assay
[5] = molecular target: HIV-1 Env of pseudovirus isolate MGRM-G-016 (HIV-1); assay: cell-based or functional assay
[6] = molecular target: HIV-1 92TH021 Env (pseudovirus) (HIV-1); assay: cell-based or functional assay
[7] = molecular target: HIV-1 Env of pseudovirus isolate MGRM-G-001 (HIV-1); assay: cell-based or functional assay
[8] = molecular target: HIV-1 Env of pseudovirus isolate MGRM-G-006 (HIV-1); assay: cell-based or functional assay
[9] = molecular target: envelope of aMLV pseudovirus (negative control); assay: cell-based or functional assay
[10] = molecular target: HIV-1 94UG103 Env (pseudovirus) (HIV-1); assay: cell-based or functional assay
[11] = molecular target: HIV-1 Env of pseudovirus isolate MGRM-G-004 (HIV-1); assay: cell-based or functional assay
[12] = molecular target: HIV-1 APV6 Env (pseudovirus) (HIV-1); assay: cell-based or functional assay
[13] = molecular target: HIV-1 92UG005 Env (pseudovirus) (HIV-1); assay: cell-based or functional assay
[14] = molecular target: HIV-1 Env of pseudovirus isolate MGRM-G-011 (HIV-1); assay: cell-based or functional assay
[15] = molecular target: HIV-1 MGRM-D-018 Env (pseudovirus) (HIV-1); assay: cell-based or functional assay
[16] = molecular target: HIV-1 Env of pseudovirus isolate MGRM-G-009 (HIV-1); assay: cell-based or functional assay
[17] = molecular target: HIV-1 Env of pseudovirus isolate MGRM-G-027 (HIV-1); assay: cell-based or functional assay
[18] = molecular target: HIV-1 Env of pseudovirus isolate MGRM-G-013 (HIV-1); assay: cell-based or functional assay
[19] = molecular target: HIV-1 JRCSF Env (pseudovirus) (HIV-1) (UniProt P20871); assay: cell-based or functional assay
[20] = molecular target: HIV-1 MGRM-C-028 Env (pseudovirus) (HIV-1); assay: cell-based or functional assay
[21] = molecular target: HIV-1 Env of pseudovirus isolate MGRM-G-019 (HIV-1); assay: cell-based or functional assay
[22] = molecular target: HIV-1 93IN905 Env (pseudovirus) (HIV-1); assay: cell-based or functional assay
[23] = molecular target: HIV-1 NL43 Env (pseudovirus) (HIV-1); assay: cell-based or functional assay
[24] = molecular target: HIV-1 Env of pseudovirus isolate MGRM-G-015 (HIV-1); assay: cell-based or functional assay
[25] = molecular target: HIV-1 Env of pseudovirus isolate MGRM-G-014 (HIV-1); assay: cell-based or functional assay
[26] = molecular target: HIV-1 Env of pseudovirus isolate MGRM-G-017 (HIV-1); assay: cell-based or functional assay
[27] = molecular target: HIV-1 MGRM-C-026 Env (pseudovirus) (HIV-1); assay: cell-based or functional assay
[28] = molecular target: HIV-1 MGRM-A-010 Env (pseudovirus) (HIV-1); assay: cell-based or functional assay
[29] = molecular target: WT JR-FL gp120 (HIV-1); assay: ELISA, antigen-coated wells

Chain of 5345_I01 (PGT-137) (antibody) (VH): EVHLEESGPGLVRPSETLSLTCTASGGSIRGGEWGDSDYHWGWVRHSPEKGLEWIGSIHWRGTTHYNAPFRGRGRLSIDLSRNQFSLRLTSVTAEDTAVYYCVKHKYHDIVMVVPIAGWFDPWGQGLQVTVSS
Chain of 5345_I01 (PGT-137) (antibody) (VL): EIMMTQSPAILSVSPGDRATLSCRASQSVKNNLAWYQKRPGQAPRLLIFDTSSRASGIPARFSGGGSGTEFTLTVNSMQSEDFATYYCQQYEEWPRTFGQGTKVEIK
Chain of 5329_C19 (PGT-136) (antibody) (VH): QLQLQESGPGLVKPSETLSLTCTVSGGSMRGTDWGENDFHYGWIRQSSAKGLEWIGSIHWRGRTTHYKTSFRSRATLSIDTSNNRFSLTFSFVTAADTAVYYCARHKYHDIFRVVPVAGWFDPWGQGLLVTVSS
Chain of 5329_C19 (PGT-136) (antibody) (VL): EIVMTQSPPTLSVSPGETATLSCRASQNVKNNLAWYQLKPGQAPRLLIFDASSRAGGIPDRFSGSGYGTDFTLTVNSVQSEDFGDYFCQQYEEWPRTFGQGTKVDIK

Substance	IC50 (neutralizing activity, pseudovirus) [1]	neutralization IC50 (pseudovirus) [2]	IC50 (neutralizing activity, pseudovirus) [3]	IC50 (neutralizing activity, pseudovirus) [4]	IC50 (µg/mL), pseudovirus neutralization [5]	IC50 (neutralizing activity, pseudovirus) [6]	IC50 (µg/mL), pseudovirus neutralization [7]	IC50 (µg/mL), pseudovirus neutralization [8]	IC50 (µg/mL), pseudovirus neutralization [9]	IC50 (neutralizing activity, pseudovirus) [10]	IC50 (µg/mL), pseudovirus neutralization [11]	IC50 (µg/mL), pseudovirus neutralization [14]	IC50 (µg/mL), pseudovirus neutralization [16]	IC50 (µg/mL), pseudovirus neutralization [17]	IC50 (µg/mL), pseudovirus neutralization [18]	IC50 (µg/mL), pseudovirus neutralization [21]	IC50 (µg/mL), pseudovirus neutralization [24]	IC50 (µg/mL), pseudovirus neutralization [25]	IC50 (µg/mL), pseudovirus neutralization [26]	EC50 [29]	further results
5329_C19 (PGT-136) (antibody)	0.0915 µg/mL	0.738 µg/mL	> 10 µg/mL	> 10 µg/mL	> 50 µg/mL	> 10 µg/mL	8.11 µg/mL	> 50 µg/mL	> 50 µg/mL	> 10 µg/mL	> 50 µg/mL	> 50 µg/mL	> 50 µg/mL	45.2 µg/mL	> 50 µg/mL	44.3 µg/mL	> 50 µg/mL	> 50 µg/mL	> 50 µg/mL	0.2 µg/mL	IC50 (neutralizing activity, pseudovirus) [12]: > 10 µg/mL; IC50 (neutralizing activity, pseudovirus) [13]: > 10 µg/mL; IC50 (neutralizing activity, pseudovirus) [15]: > 10 µg/mL; IC50 (neutralizing activity, pseudovirus) [19]: > 10 µg/mL; IC50 (neutralizing activity, pseudovirus) [20]: > 10 µg/mL; IC50 (neutralizing activity, pseudovirus) [22]: 0.0135 µg/mL; IC50 (neutralizing activity, pseudovirus) [23]: > 10 µg/mL; IC50 (neutralizing activity, pseudovirus) [27]: 6.5 ng/mL; IC50 (neutralizing activity, pseudovirus) [28]: > 10 µg/mL
5345_I01 (PGT-137) (antibody)					> 50 µg/mL		41.7 µg/mL	> 50 µg/mL	> 50 µg/mL		> 50 µg/mL	> 50 µg/mL	> 50 µg/mL	0.228 µg/mL	> 50 µg/mL	0.126 µg/mL	> 50 µg/mL	> 50 µg/mL	34.9 µg/mL	0.1 µg/mL	
5343_B08 (PGT-135) (antibody)	0.0139 µg/mL	0.157 µg/mL	> 10 µg/mL	> 10 µg/mL	> 50 µg/mL	> 10 µg/mL	0.393 µg/mL	> 50 µg/mL	> 50 µg/mL	> 10 µg/mL	> 50 µg/mL	> 50 µg/mL	> 50 µg/mL	0.062 µg/mL	> 50 µg/mL	0.145 µg/mL	> 50 µg/mL	> 50 µg/mL	0.137 µg/mL	0.1 µg/mL	IC50 (neutralizing activity, pseudovirus) [12]: > 10 µg/mL; IC50 (neutralizing activity, pseudovirus) [13]: > 10 µg/mL; IC50 (neutralizing activity, pseudovirus) [15]: 0.0433 µg/mL; IC50 (neutralizing activity, pseudovirus) [19]: 0.113 µg/mL; IC50 (neutralizing activity, pseudovirus) [20]: 2.16 µg/mL; IC50 (neutralizing activity, pseudovirus) [22]: 0.0183 µg/mL; IC50 (neutralizing activity, pseudovirus) [23]: 6.79 µg/mL; IC50 (neutralizing activity, pseudovirus) [27]: 12.3 ng/mL; IC50 (neutralizing activity, pseudovirus) [28]: > 10 µg/mL
